Experimental data as given in the supplement of paper PMC10567573.

B1: CCDC6 (parent)
chain: TLFKKIQALQKEKETLAVNYEKEE

Variants of: B1
Assay: protein stability index of a GFP-peptide fusion (GPS, HEK-293T) (PSI 1-6); higher = more stable
Conditions: c terminus: a fixed tail appended
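Further: lentivirally expressed fusions sorted by FACS into six bins by GFP to DsRed ratio, PSI derived from sequencing read proportions per bin multiplied by bin number.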

First: TLFKKIQALQKMKETLAVNYEKEE [E12M]
Second: TLFKKIQALQKKKETLAVNYEKEE [E12K]
The protein stability index of the first is lower: 2.49 for the first, 2.59 for the second.

Compared with TLFKKIQALQKIKETLAVNYEKEE [E12I], TLFKKIQALQKQKETLAVNYEKEE [E12Q] is higher in protein stability index: 2.27 for the first, 2.64 for the second.

Compared with TLFKKIQALQKYKETLAVNYEKEE [E12Y], TLFKKIQALQKWKETLAVNYEKEE [E12W] is lower in protein stability index: 2.11 for the first, 1.81 for the second.

Going from TLFKKIQALQKSKETLAVNYEKEE [E12S] to TLFKKIQALQKFKETLAVNYEKEE [E12F], the protein stability index falls from 2.63 to 1.85.

First: TLFKKIQALQKPKETLAVNYEKEE [E12P]
Second: TLFKKIQALQKNKETLAVNYEKEE [E12N]
The protein stability index of the first is higher: 3.66 for the first, 3.09 for the second.

First: TLFKKIQALQKVKETLAVNYEKEE [E12V]
Second: TLFKKIQALQKDKETLAVNYEKEE [E12D]
The protein stability index of the first is lower: 2.52 for the first, 3.37 for the second.

Going from TLFKKIQALQKLKETLAVNYEKEE [E12L] to TLFKKIQALQKRKETLAVNYEKEE [E12R], the protein stability index rises from 1.97 to 2.75.

First: TLFKKIQALQKHKETLAVNYEKEE [E12H]
Second: TLFKKIQALQKAKETLAVNYEKEE [E12A]
The protein stability index of the first is lower: 2.63 for the first, 2.66 for the second.

Going from TLFKKIQALQKTKETLAVNYEKEE [E12T] to TLFKKIQALQKGKETLAVNYEKEE [E12G], the protein stability index rises from 2.62 to 3.05.

Compared with TLFKKIQALQKCKETLAVNYEKEE [E12C], TLFKKIQALQYEKETLAVNYEKEE [K11Y] is higher in protein stability index: 2.1 for the first, 2.66 for the second.

Compared with TLFKKIQALQWEKETLAVNYEKEE [K11W], TLFKKIQALQKEKDTLAVNYEKEE [E14D] is higher in protein stability index: 2.28 for the first, 3.25 for the second.

TLFKKIQALQKEKRTLAVNYEKEE [E14R] and TLFKKIQALQKEKVTLAVNYEKEE [E14V] are the same in protein stability index: 2.6 for the first, 2.6 for the second.

Compared with TLFKKIQALQKEKITLAVNYEKEE [E14I], TLFKKIQALQKEKATLAVNYEKEE [E14A] is higher in protein stability index: 2.25 for the first, 2.6 for the second.

Going from TLFKKIQALQKEKYTLAVNYEKEE [E14Y] to TLFKKIQALQKEKQTLAVNYEKEE [E14Q], the protein stability index rises from 2.05 to 3.11.

First: TLFKKIQALQKEKMTLAVNYEKEE [E14M]
Second: TLFKKIQALQKEKNTLAVNYEKEE [E14N]
The protein stability index of the first is lower: 2.27 for the first, 3.15 for the second.

Going from TLFKKIQALQKEKFTLAVNYEKEE [E14F] to TLFKKIQALQKEKGTLAVNYEKEE [E14G], the protein stability index rises from 2.16 to 3.1.

Going from TLFKKIQALQKEKKTLAVNYEKEE [E14K] to TLFKKIQALQKEKCTLAVNYEKEE [E14C], the protein stability index falls from 2.94 to 2.89.

First: TLFKKIQALQKEKHTLAVNYEKEE [E14H]
Second: TLFKKIQALQKEKSTLAVNYEKEE [E14S]
The protein stability index of the first is higher: 2.58 for the first, 2.46 for the second.

First: TLFKKIQALQKEKLTLAVNYEKEE [E14L]
Second: TLFKKIQALQKEKTTLAVNYEKEE [E14T]
The protein stability index of the first is lower: 1.97 for the first, 2.55 for the second.

First: TLFKKIQALQKEKWTLAVNYEKEE [E14W]
Second: TLFKKIQALQKEKPTLAVNYEKEE [E14P]
The protein stability index of the first is lower: 2.03 for the first, 2.64 for the second.

First: TLFKKIQALQKEEETLAVNYEKEE [K13E]
Second: TLFKKIQALQKEVETLAVNYEKEE [K13V]
The protein stability index of the first is higher: 3.78 for the first, 1.84 for the second.

First: TLFKKIQALQKEQETLAVNYEKEE [K13Q]
Second: TLFKKIQALQKEHETLAVNYEKEE [K13H]
The protein stability index of the first is higher: 3.13 for the first, 2.81 for the second.

Going from TLFKKIQALQKESETLAVNYEKEE [K13S] to TLFKKIQALQKEYETLAVNYEKEE [K13Y], the protein stability index falls from 3.23 to 2.09.

First: TLFKKIQALQKENETLAVNYEKEE [K13N]
Second: TLFKKIQALQKEGETLAVNYEKEE [K13G]
The protein stability index of the first is lower: 3.17 for the first, 3.73 for the second.

Going from TLFKKIQALQKEDETLAVNYEKEE [K13D] to TLFKKIQALQKELETLAVNYEKEE [K13L], the protein stability index falls from 3.96 to 1.93.

Going from TLFKKIQALQKEMETLAVNYEKEE [K13M] to TLFKKIQALQKEPETLAVNYEKEE [K13P], the protein stability index rises from 2.65 to 3.51.

First: TLFKKIQALQKEIETLAVNYEKEE [K13I]
Second: TLFKKIQALQKETETLAVNYEKEE [K13T]
The protein stability index of the first is lower: 2.2 for the first, 3.4 for the second.

Going from TLFKKIQALQKERETLAVNYEKEE [K13R] to TLFKKIQALQKEWETLAVNYEKEE [K13W], the protein stability index falls from 3.49 to 1.91.

Compared with TLFKKIQALQKEAETLAVNYEKEE [K13A], TLFKKIQALQKECETLAVNYEKEE [K13C] is lower in protein stability index: 2.58 for the first, 2.28 for the second.

Compared with TLFKKIQALQKEKETVAVNYEKEE [L16V], TLFKKIQALQKEKETTAVNYEKEE [L16T] is higher in protein stability index: 3.23 for the first, 3.49 for the second.

Going from TLFKKIQALQKEKETQAVNYEKEE [L16Q] to TLFKKIQALQKEKETMAVNYEKEE [L16M], the protein stability index falls from 4.1 to 3.24.

Going from TLFKKIQALQKEKETFAVNYEKEE [L16F] to TLFKKIQALQKEKETIAVNYEKEE [L16I], the protein stability index falls from 2.81 to 2.69.

Compared with TLFKKIQALQKEKETGAVNYEKEE [L16G], TLFKKIQALQKEKETKAVNYEKEE [L16K] is lower in protein stability index: 4.09 for the first, 2.83 for the second.

First: TLFKKIQALQKEKETAAVNYEKEE [L16A]
Second: TLFKKIQALQKEKETDAVNYEKEE [L16D]
The protein stability index of the first is lower: 3.32 for the first, 3.88 for the second.

Compared with TLFKKIQALQKEKETHAVNYEKEE [L16H], TLFKKIQALQKEKETNAVNYEKEE [L16N] is lower in protein stability index: 3.91 for the first, 3.6 for the second.

Compared with TLFKKIQALQKEKETRAVNYEKEE [L16R], TLFKKIQALQKEKETEAVNYEKEE [L16E] is higher in protein stability index: 3.02 for the first, 4.07 for the second.

Going from TLFKKIQALQKEKETCAVNYEKEE [L16C] to TLFKKIQALQKEKETSAVNYEKEE [L16S], the protein stability index rises from 3.05 to 4.02.

Compared with TLFKKIQALQKEKETPAVNYEKEE [L16P], TLFKKIQALQKEKECLAVNYEKEE [T15C] is lower in protein stability index: 3.44 for the first, 2.84 for the second.

First: TLFKKIQALQKEKEDLAVNYEKEE [T15D]
Second: TLFKKIQALQKEKENLAVNYEKEE [T15N]
The protein stability index of the first is higher: 3.89 for the first, 3.23 for the second.

First: TLFKKIQALQKEKEALAVNYEKEE [T15A]
Second: TLFKKIQALQKEKEELAVNYEKEE [T15E]
The protein stability index of the first is lower: 2.97 for the first, 3.77 for the second.

First: TLFKKIQALQKEKEILAVNYEKEE [T15I]
Second: TLFKKIQALQKEKESLAVNYEKEE [T15S]
The protein stability index of the first is higher: 3.98 for the first, 2.91 for the second.

Compared with TLFKKIQALQKEKEGLAVNYEKEE [T15G], TLFKKIQALQKEKERLAVNYEKEE [T15R] is lower in protein stability index: 3.25 for the first, 2.88 for the second.

Compared with TLFKKIQALQKEKEYLAVNYEKEE [T15Y], TLFKKIQALQKEKEFLAVNYEKEE [T15F] is lower in protein stability index: 3.08 for the first, 2.06 for the second.

First: TLFKKIQALQKEKEWLAVNYEKEE [T15W]
Second: TLFKKIQALQKEKEHLAVNYEKEE [T15H]
The protein stability index of the first is lower: 1.92 for the first, 2.76 for the second.

Going from TLFKKIQALQKEKEKLAVNYEKEE [T15K] to TLFKKIQALQKEKEPLAVNYEKEE [T15P], the protein stability index rises from 3.3 to 3.56.

Going from TLFKKIQALQKEKEQLAVNYEKEE [T15Q] to TLFKKIQALQKEKELLAVNYEKEE [T15L], the protein stability index falls from 2.98 to 2.54.

Compared with TLFKKIQALQKEKEMLAVNYEKEE [T15M], TLFKKIQALQKEKEVLAVNYEKEE [T15V] is higher in protein stability index: 2.85 for the first, 3.42 for the second.
